Test results as given in patent US20240400677A1 (ELECTRA THERAPEUTICS, published 2024).

T1: cynomolgus monkey SIRPγ-His monomer protein (cynomolgus monkey, UniProt Q9P1W8 29-359 (human entry), limits assumed)
T1 construct: also called Cyno SIRPγ; Cyno SIRPγ-His
T1 chain: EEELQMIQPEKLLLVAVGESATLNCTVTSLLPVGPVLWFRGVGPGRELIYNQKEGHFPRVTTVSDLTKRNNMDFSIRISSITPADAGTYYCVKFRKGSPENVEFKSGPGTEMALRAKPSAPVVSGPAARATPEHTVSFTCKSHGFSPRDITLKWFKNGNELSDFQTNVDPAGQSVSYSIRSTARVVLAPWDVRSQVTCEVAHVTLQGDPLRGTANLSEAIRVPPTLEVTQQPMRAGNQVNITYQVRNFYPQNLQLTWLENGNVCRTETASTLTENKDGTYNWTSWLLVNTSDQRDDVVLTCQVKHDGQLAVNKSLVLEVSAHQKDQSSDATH

T2: cynomolgus monkey SIRPγ on CHO cells (cynomolgus monkey, UniProt Q9P1W8 29-386 (human entry))
T2 construct: also called Cyno SIRPγ CHO
T2 chain: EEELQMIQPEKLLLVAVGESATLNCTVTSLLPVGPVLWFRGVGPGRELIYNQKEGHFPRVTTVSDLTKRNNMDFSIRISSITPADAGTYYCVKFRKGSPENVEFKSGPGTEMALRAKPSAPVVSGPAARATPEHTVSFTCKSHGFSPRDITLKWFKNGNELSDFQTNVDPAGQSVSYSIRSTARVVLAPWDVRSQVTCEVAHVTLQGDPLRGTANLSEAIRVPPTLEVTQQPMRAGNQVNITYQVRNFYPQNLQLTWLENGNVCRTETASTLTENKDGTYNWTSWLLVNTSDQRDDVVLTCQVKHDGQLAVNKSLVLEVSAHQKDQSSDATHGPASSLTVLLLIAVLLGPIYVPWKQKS

T3: cynomolgus monkey SIRPα on CHO cells (cynomolgus monkey, UniProt A0A2K5VYQ9 31-507)
T3 construct: whole, on cells; also called Cyno SIRPα CHO
T3 sequence: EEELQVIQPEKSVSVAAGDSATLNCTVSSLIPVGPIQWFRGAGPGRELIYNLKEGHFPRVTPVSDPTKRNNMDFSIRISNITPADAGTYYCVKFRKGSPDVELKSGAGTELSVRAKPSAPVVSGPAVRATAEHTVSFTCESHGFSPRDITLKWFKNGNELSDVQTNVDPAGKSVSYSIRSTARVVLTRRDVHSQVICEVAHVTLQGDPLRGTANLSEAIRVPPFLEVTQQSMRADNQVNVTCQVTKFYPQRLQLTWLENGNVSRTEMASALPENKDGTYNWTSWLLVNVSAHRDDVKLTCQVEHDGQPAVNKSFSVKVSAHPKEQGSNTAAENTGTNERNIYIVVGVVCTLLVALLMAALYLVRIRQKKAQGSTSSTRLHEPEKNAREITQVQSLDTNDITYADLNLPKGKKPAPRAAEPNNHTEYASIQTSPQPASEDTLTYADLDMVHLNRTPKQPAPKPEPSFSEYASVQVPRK


Experiments:
[1] = molecular target: T1, cynomolgus monkey SIRPγ-His monomer …; assay: BLI Octet, captured scFv PPE, cyno SIRP
Description: Unique binders were further tested for binding to human SIRPαV1, human SIRPαV2, and human SIRPβ1. Briefly, biotinylated anti-V5 was immobilized onto streptavidin biosensors. Each V5-tagged SIRPγ scFv antibody as crude PPE was captured by the anti-V5 antibody. SIRP-His monomer protein at 500 nM was exposed to the biosensor for binding to SIRP scFv. The biosensors were then exposed to wash buffer to measure off-rate kinetics. The resulting association and dissociation kinetics (kdis) was analyzed. […] Similarly, cross-reactivity to cynomolgus monkey SIRPγ, cynomolgus monkey SIRPα, and cynomolgus monkey SIRPβ1 were tested.

[2] = molecular target: T4, human SIRPγ-His monomer protein (human, UniProt Q9P1W8 29-360); assay: BLI Octet, V5-scFv PPE captured, SIRP-His 500 nM
T4 construct: also called hSIRPγ
T4 sequence (Q9P1W8 29-360 limits assumed): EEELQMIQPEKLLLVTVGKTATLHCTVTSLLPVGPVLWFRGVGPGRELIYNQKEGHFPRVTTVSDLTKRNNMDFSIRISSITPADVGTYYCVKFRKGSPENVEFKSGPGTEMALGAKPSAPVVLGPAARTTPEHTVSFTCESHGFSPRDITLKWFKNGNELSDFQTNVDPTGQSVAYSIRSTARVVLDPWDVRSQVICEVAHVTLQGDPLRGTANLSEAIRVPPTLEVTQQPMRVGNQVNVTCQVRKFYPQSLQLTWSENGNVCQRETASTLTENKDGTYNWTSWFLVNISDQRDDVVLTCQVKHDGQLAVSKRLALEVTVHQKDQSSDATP

[3] = molecular target: T5, human SIRPγ on stably transfected CHO cells (human, UniProt Q9P1W8 29-387); assay: flow cytometry, myc-scFv PPE
T5 construct: also called Human SIRPγ CHO
T5 sequence (Q9P1W8 29-387 limits assumed): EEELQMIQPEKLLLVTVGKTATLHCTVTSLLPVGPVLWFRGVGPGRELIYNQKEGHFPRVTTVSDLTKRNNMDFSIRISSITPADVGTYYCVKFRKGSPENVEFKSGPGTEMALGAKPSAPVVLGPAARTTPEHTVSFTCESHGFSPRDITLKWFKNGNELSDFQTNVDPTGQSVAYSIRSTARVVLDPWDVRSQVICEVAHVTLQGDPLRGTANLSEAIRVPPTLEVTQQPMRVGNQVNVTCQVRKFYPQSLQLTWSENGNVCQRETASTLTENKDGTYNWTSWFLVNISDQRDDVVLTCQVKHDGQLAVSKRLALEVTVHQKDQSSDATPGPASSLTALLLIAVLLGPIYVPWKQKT
Method in brief: (§1)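 Flow cytometry on stable CHO transfectants; antibody titration; fluorescent anti-human IgG detection; MFI per concentration. myc-tagged scFv: crude PPE on SIRP-expressing CHO and parental CHO-K1; fold change <2.0 = non-binder.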

[4] = molecular target: T2, cynomolgus monkey SIRPγ on CHO cells; assay: flow cytometry, myc-scFv PPE
Method in brief: as §1

[5] = molecular target: T6, human SIRPβ1 on CHO cells (co-transfected with DAP12) (human, UniProt O00241 30-398); assay: flow cytometry
T6 construct: whole, on cells; co-transfected with DAP12; also called Human SIRPβ1 CHO
T6 sequence (O00241 30-398): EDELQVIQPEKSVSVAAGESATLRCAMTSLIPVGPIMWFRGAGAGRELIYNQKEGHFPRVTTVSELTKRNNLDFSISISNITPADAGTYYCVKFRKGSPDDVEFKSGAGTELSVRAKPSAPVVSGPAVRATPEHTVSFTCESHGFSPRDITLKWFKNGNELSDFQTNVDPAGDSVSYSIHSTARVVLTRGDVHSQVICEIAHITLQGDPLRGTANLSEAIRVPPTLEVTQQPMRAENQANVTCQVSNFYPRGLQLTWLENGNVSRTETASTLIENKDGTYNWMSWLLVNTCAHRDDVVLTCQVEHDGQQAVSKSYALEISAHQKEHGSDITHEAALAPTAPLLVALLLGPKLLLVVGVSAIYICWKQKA

[6] = molecular target: T3, cynomolgus monkey SIRPα on CHO cells; assay: flow cytometry

binding result [1]	kdis [2]	MFI fold change over parental CHO [3]	MFI fold change over parental CHO [4]	binding result [5]	binding result [6]	Binder
binds	0.001 to 0.01 s⁻¹	7.06 fold	5.22 fold	no binding (tested: fold change <2.0)	no binding (tested: fold change <2.0)	Antibody 13 (scFv, V domains shown, scFv in crude PPE, V5/myc-tagged) VH: EVQLLESGGGLVQPGGSLRLSCAASGFTFSNSDMNWVRQAPGKGLEWVSYISSSGNTIYYADSVKGRFTISRDNSKNTLYLQMNSLRAEDTAVYYCARSNWNYPLDYYYMDVWGKGTTVTVSS VL: DIVMTQSPLSLPVTPGEPASISCRSSQSLLHSNGYNYLDWYLQKPGQSPQLLIYAASSLQSGVPDRFSGSGSGTDFTLKISRVEAEDVGVYYCMQGTHWPPTFGQGTKVEIK
binds	> 0.01 s⁻¹	25.5 fold	36.1 fold	no binding (tested: fold change <2.0)	no binding (tested: fold change <2.0)	Antibody 41 (scFv, V domains shown, scFv in crude PPE, V5/myc-tagged) VH: QVQLVQSGAEVKKPGSSVKVSCKASGGTFSNYAISWVRQAPGQGLEWMGGIIPIFGSTASYAQKFQGRVTITADESTSTAYMELSSLRSEDTAVYYCARGVGDDTLTDWGQGTLVTVSS VL: DIVMTQSPLSLPVTPGEPASISCRSSQSLLHSNGYNYLDWYLQKPGQSPQLLIYAASSLQSGVPDRFSGSGSGTDFTLKISRVEAEDVGVYYCMQALQTPLTFGGGTKVEIK
binds	> 0.01 s⁻¹	18.6 fold	18.3 fold	no binding (tested: fold change <2.0)	no binding (tested: fold change <2.0)	Antibody 49 (scFv, V domains shown, scFv in crude PPE, V5/myc-tagged) VH: QVQLVQSGAEVKKPGSSVKVSCKASGGTFSSYAISWVRQAPGQGLEWMGVINPSGGSTSYAQKFQGRVTITADESTSTAYMELSSLRSEDTAVYYCARESRGYYGMDVWGQGTTVTVSS VL: not shown
binds	–	41.2 fold	22.7 fold	no binding (tested: fold change <2.0)	no binding (tested: fold change <2.0)	Antibody 43 (scFv, V domains shown, scFv in crude PPE, V5/myc-tagged) VH: QVQLVQSGAEVKKPGASVKVSCKASGGTFTSYDINWVRQAPGQGLEWMGWISAYNGHTNYAQNLQGRVTMTRDTSTSTVYMELSSLRSEDTAVYYCAREDSSWYFDLWGRGTLVTVSS VL: DIQMTQSPSSLSASVGDRVTITCRASQSISSWLAWYQQKPGKAPKLLIYDASNLETGVPSRFSGSGSGTDFTLTISSLQPEDFATYYCQQSFSTPPTFGQGTKVEIK
binds	0.001 to 0.01 s⁻¹	31.1 fold	15.5 fold	no binding (tested: fold change <2.0)	–	Antibody 37 (scFv, V domains shown, scFv in crude PPE, V5/myc-tagged) VH: QVQLVQSGAEVKKPGASVKVSCKASGYTLNNYDINWVRQAPGQGLEWMGWISGYNGNTNYAQKLQGRVTMTRDTSTSTVYMELSSLRSEDTAVYYCARVGSSWEENDQWGQGTLVTVSS VL: DIQMTQSPSSLSASVGDRVTITCRASQSISRWLAWYQQKPGKAPKLLIYAASSLESGVPSRFSGSGSGTDFTLTISSLQPEDFATYYCQQTHSFPLTFGGGTKVEIK
binds	–	28.3 fold	30.1 fold	–	no binding (tested: fold change <2.0)	Antibody 17 (scFv, V domains shown, scFv in crude PPE, V5/myc-tagged) VH: QVQLVQSGAEVKKPGASVKVSCKASGYTFTRNYVHWVRQAPGQGLEWMGRINPNSGGTNTAQKFQGRVTMTRDTSTSTVYMELSSLRSEDTAVYYCARLGDVAVAASFDYWGQGTLVTVSS VL: DIQMTQSPSSLSASVGDRVTITCRASQSISSYLNWYQQKPGKAPKLLIYDASSLESGVPSRFSGSGSGTDFTLTISSLQPEDFATYYCQQANSFPLTFGPGTKVDIK
binds	> 0.01 s⁻¹	12.8 fold	30.8 fold	no binding (tested: fold change <2.0)	no binding (tested: fold change <2.0)	Antibody 50 (scFv, V domains shown, scFv in crude PPE, V5/myc-tagged) VH: QVQLVQSGAEVKKPGASVKVSCKASGYTFTGYYMHWVRQAPGQGLEWMGTINPSGGSTSYAQKFQGRVTMTRDTSTSTVYMELSSLRSEDTAVYYCVKGNGYYDLWGQGTLVTVSS VL: DIQMTQSPSSLSASVGDRVTITCRASQSISSWLAWYQQKPGKAPKLLIYDTSNLQGGVPSRFSGSGSGTDFTLTISSLQPEDFATYYCQQYDSFPWTFGQGTKVEIK
binds	0.001 to 0.01 s⁻¹	15.4 fold	15.3 fold	no binding (tested: fold change <2.0)	no binding (tested: fold change <2.0)	Antibody 40 (scFv, V domains shown, scFv in crude PPE, V5/myc-tagged) VH: QVQLVQSGAEVKKPGSSVKVSCKASGGTFSSYAISWVRQAPGQGLEWVGRIHPRDGSTDYAQKFQGRVTITADESTSTAYMELSSLRSEDTAVYYCARVSLRFLEDYGMDVWGQGTTVTVSS VL: not shown
binds	> 0.01 s⁻¹	15.9 fold	14.5 fold	no binding (tested: fold change <2.0)	no binding (tested: fold change <2.0)	Antibody 42 (scFv, V domains shown, scFv in crude PPE, V5/myc-tagged) VH: QVQLVQSGAEVKKPGASVKVSCKASGYTFTSYHMHWVRQAPGQGLEWMGWMNPNSGNTGYAQKFQGRVTMTRDTSTSTVYMELSSLRSEDTAVYYCARGGRVVRGVIKGWFDPWGQGTLVTVSS VL: not shown
binds	0.001 to 0.01 s⁻¹	28.4 fold	40 fold	–	no binding (tested: fold change <2.0)	Antibody 26 (scFv, V domains shown, scFv in crude PPE, V5/myc-tagged) VH: QVQLVQSGAEVKKPGASVKVSCKASGYTFTSYYMHWVRQAPGQGLEWMGRINPNSGGTKYAQKFQGRVTMTRDTSTSTVYMELSSLRSEDTAVYYCARLGSAYFDLWGRGTLVTVSS VL: DIQMTQSPSSLSASVGDRVTITCRASQSVDTWLAWYQQKPGKAPKLLIYEASTLESGVPSRFSGSGSGTDFTLTISSLQPEDFATYYCQQANSFPITFGQGTRLEIK
binds	> 0.01 s⁻¹	17.3 fold	14.2 fold	no binding (tested: fold change <2.0)	no binding (tested: fold change <2.0)	Antibody 47 (scFv, V domains shown, scFv in crude PPE, V5/myc-tagged) VH: QVQLVQSGAEVKKPGASVKVSCKASGYTFTTYGISWVRQAPGQGLEWMGWMDPNSGSTGYAQKFQGRVTMTRDTSTSTVYMELSSLRSEDTAVYYCARGRGNSYYYYYMDVWGKGTTVTVSS VL: DIQMTQSPSSLSASVGDRVTITCRASQRIGSYLNWYQQKPGKAPKLLIYGASNLQSGVPSRFSGSGSGTDFTLTISSLQPEDFATYYCQQANSFPFTFGPGTKVDIK
